Series [1] addresses T1, GFP-TALE_9a_26 WT (Xanthomonas axonopodis scaffold …). The series is described as follows: EMSA; 5mC vs C DNA; EMSA: 20 mM Tris pH 8, 50 mM NaCl, 5 mM MgCl2, 5% glycerol; 0.1 pmol TALE + 0.5 pmol duplex in 10 uL; RT 30 min then ice 30 min; gel 0.5x TAE 4 C; GFP readout. The following applies: protein: recombinant; tags: N-terminal GFP; C-terminal His6; blunt. In general terms: Mobility shift assays separate free from complexed probe on a gel.

Series [2] concerns the target T1, GFP-TALE_9a_26 WT. The series is described as follows: EMSA; EMSA: 20 mM Tris pH 8, 50 mM NaCl, 5 mM MgCl2, 5% glycerol; 0.1 pmol TALE + 0.5 pmol duplex in 10 uL; RT 30 min then ice 30 min; gel 0.5x TAE 4 C; GFP readout. The following applies: protein: recombinant; tags: N-terminal GFP; C-terminal His6; blunt.

B1: 9a_26 5mC (dsDNA)
DNA 1: GGCCAGCCAGTCAGCCGAAGGCTCCATGCTGCTCCCCGCCGCCGGC
DNA 2: GCCGGCGGCGGGGAGCAGCATGGAGCCTTCGGCTGACTGGCTGGCC
modifications: 5mC at strand 1 nt 16 (site position 5, T = 0)
As to B1, the binding signal with GFP-TALE_9a_26 WT [1] was 2 fold C over 5mC selectivity.

B2: 9a_26 C (dsDNA)
DNA 1: B1 DNA 1
DNA 2: B1 DNA 2
As to B2, the binding result in the series with GFP-TALE_9a_26 WT [2] was “binds”.

These data come from publication PMC5678105, “Engineering DNA Backbone Interactions Results in TALE Scaffolds with Enhanced 5-Methylcytosine Selectivity”.
